Experimental data taken from US20130195871A1 (AbbVie / Abbott, published 2013).

Key:
[1] = target: T1, EGFR on the cell surface (human, UniProt P00533 25-1210); assay: flow cytometry on cells, 2 ug/mL
T1 construct: whole, on cells
Method: (§1) Stable cell lines overexpressing a cell-surface antigen of interest or human tumor cell lines were harvested from tissue culture flasks and resuspended in phosphate buffered saline (PBS) containing 5% fetal bovine serum (PBS/FBS). Prior to staining, human tumor cells were incubated on ice with (100 μl) human IgG at 5 μg/ml in PBS/FCS. 1-5×10⁵ cells were incubated with antibody or DVD-Ig (2 μg/mL) in PBS/FBS for 30-60 minutes on ice. […] After 30 minutes incubation on ice, cells were washed twice and resuspended in PBS/FBS. Fluorescence was measured using a Becton Dickinson FACSCalibur (Becton Dickinson, San Jose, Calif.).
(§2) The geometric mean is the n root of the multiplication product of n fluorescent signals (a1×a2×a3 . . . an). With log-transformed data the geometric mean is used to normalize the weighting of the data distribution.

[2] = target: T1, EGFR on the cell surface; assay: flow cytometry on cells, 2 ug/mL, C-terminal VD
Method: as §1, §2

[3] = target: T2, ErbB3 on the cell surface (human, UniProt P21860 20-1342); assay: flow cytometry on cells, 2 ug/mL, N-terminal VD
T2 construct: whole, on cells
Method: as §1, §2
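Also: cells stained for 30 to 60 min on ice.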

B1: AB400 (antibody, V domains shown)
VH: EVQLVESGGGLVQPGGSLRLSCAASGFSLTNYGVHWVRQAPGKGLEWLGVGWSGGNTDYNTPFTSRLTINKDNSKNTVYLQMNSLRAEDTAVYYCARALTWYDYEFAYWGQGTLVTVSS
VL: DILLTQSPGTLSLSPGERATLSCRASQSIYTNIHWYQQKPGQAPRLLIKYASESISGIPDRFSGSGSGTDFTLTISRLEPEDFAVYYCQQNLNWPTTFGQGTKLEIKR
notes: parent antibody
B1 was tested, and the “GEO MEAN” value [1] was 439.

B2: DVD2295 (bispecific antibody)
VH: EVQLLESGGGLVQPGGSLRLSCAASGFTFSHYVMAWVRQAPGKGLEWVSSISSSGGWTLYADSVKGRFTISRDNSKNTLYLQMNSLRAEDTAVYYCTRGLKMATIFDYWGQGTLVTVSSASTKGPEVQLVESGGGLVQPGGSLRLSCAASGFSLTNYGVHWVRQAPGKGLEWLGVGWSGGNTDYNTPFTSRLTINKDNSKNTVYLQMNSLRAEDTAVYYCARALTWYDYEFAYWGQGTLVTVSS
VL: QSALTQPASVSGSPGQSITISCTGTSSDVGSYNVVSWYQQHPGKAPKLIIYEVSQRPSGVSNRFSGSKSGNTASLTISGLQTEDEADYYCCSYAGSSIFVIFGGGTKVTVLGQPKAAPDILLTQSPGTLSLSPGERATLSCRASQSIYTNIHWYQQKPGQAPRLLIKYASESISGIPDRFSGSGSGTDFTLTISRLEPEDFAVYYCQQNLNWPTTFGQGTKLEIK
notes: DVD-Ig, outer AB116 / inner AB400
For B2, the “GEO MEAN” value [2] was 317 and the “GEO MEAN” value [3] was 80.

B3: DVD2297 (bispecific antibody)
VH: QVQLQQWGAGLLKPSETLSLTCAVYGGSFSGYYWSWIRQPPGKGLEWIGEINHSGSTNYNPSLKSRVTISVETSKNQFSLKLSSVTAADTAVYYCARDKWTWYFDLWGRGTLVTVSSASTKGPEVQLVESGGGLVQPGGSLRLSCAASGFSLTNYGVHWVRQAPGKGLEWLGVGWSGGNTDYNTPFTSRLTINKDNSKNTVYLQMNSLRAEDTAVYYCARALTWYDYEFAYWGQGTLVTVSS
VL: DIEMTQSPDSLAVSLGERATINCRSSQSVLYSSSNRNYLAWYQQNPGQPPKLLIYWASTRESGVPDRFSGSGSGTDFTLTISSLQAEDVAVYYCQQYYSTPRTFGQGTKVEIKRTVAAPDILLTQSPGTLSLSPGERATLSCRASQSIYTNIHWYQQKPGQAPRLLIKYASESISGIPDRFSGSGSGTDFTLTISRLEPEDFAVYYCQQNLNWPTTFGQGTKLEIK
notes: DVD-Ig, outer AB062 / inner AB400
B3 was tested, and the “GEO MEAN” value [2] was 106 and the “GEO MEAN” value [3] was 135.
